Results: the supplement of paper PMC7877785
± gives the uncertainty stated by the source.

Experiment: self-splicing fitness, log relative to wild type (ln ratio); higher = more splicing; Tetrahymena group I intron in knt gene, E. coli kanamycin selection, DiMSum; sequences stand for … in CUCUCU…GGAGGGAAAAGUUAUCAGGCAUGCACCUGGUAGCUAGUCUUUAAACCAAUAGAUUGCAUCGGUUUAAAAGGCAAGACCGUCAAAUUGCGGGAAAGGGGUCAACAGCCGUUCAGUACCAAGUCUCAGGGGAAACUUUGAGAUGGCCUUGCAAAGGGUAUGGUAAUAAGCUGACGGACAUGGUCCUAACCACGCAGCCAAGUCCUAAGUCAACAGAUCUUCUGUUGAUAUGGAUGCAGUUCACAGACUAAAUGUCGGUCGGGGAAGAUGUAUUCUUCUCAUAAGAUAUAGUCGGACCUCUCCUUAAUGGGAGCUAGCGGAUGAAGUGAUGCAACACUGGAGCCGCUGGGAACUAAUUUGUAUGCGAAAGUAUAUUGAUUAGUUUUGGAGUACUCGUGGUCG
Method in brief: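 DiMSum derived fitness as the error-weighted combination of fold changes across replicates, kanamycin versus no kanamycin, normalised to wild type. E. coli BL21(DE3) held the library, which randomised all eight P1ex-region intron nucleotides within the knt kanamycin-resistance gene on pET-22b(+). Six replicate transformations grew overnight at 37°C or 30°C on LB agar with or without 25 μg/mL kanamycin, also containing 100 μg/mL carbenicillin, 50 μM IPTG and 0.2% rhamnose, and pooled colonies were amplicon-sequenced on an Illumina HiSeq 2500.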

Row | Sequence | self-splicing fitness (ln) (30 °C) | self-splicing fitness (ln) (37 °C)
1 | CAAAAGCAAUAUUACGUCCA | -1.7 ± 0.18 | -2.05 ± 0.16
2 | GUCGAGCAAUAUUACGCAGA | -2.79 ± 0.32 | -1.61 ± 0.39
3 | CGGUAGCAAUAUUACGGCCU | -0.555 ± 0.12 | -0.911 ± 0.12
4 | GCAAAGCAAUAUUACGGGGA | -2.9 ± 0.16 | -1.99 ± 0.15
5 | CAGUAGCAAUAUUACGAAGG | -1.25 ± 0.12 | -1.8 ± 0.14
6 | AUGGAGCAAUAUUACGCUGC | – | -2.95 ± 0.38
7 | ACCCAGCAAUAUUACGCGGA | -0.326 ± 0.05 | 0.218 ± 0.064
8 | GACGAGCAAUAUUACGGACA | -1.57 ± 0.43 | -0.484 ± 0.14
9 | UUUCAGCAAUAUUACGCCCA | -1.19 ± 0.22 | -0.699 ± 0.22
10 | CUCCAGCAAUAUUACGAUAU | -2.46 ± 0.19 | -2.95 ± 0.47
11 | AAGCAGCAAUAUUACGUUAC | -3.42 ± 0.29 | -1.35 ± 0.18
12 | AAACAGCAAUAUUACGUACA | -1.23 ± 0.073 | -0.0501 ± 0.082
13 | CAUCAGCAAUAUUACGGCUU | -2.91 ± 0.14 | -1.75 ± 0.17
14 | GGGUAGCAAUAUUACGGAGA | -4.31 ± 0.3 | -3.19 ± 0.23
15 | ACAUAGCAAUAUUACGCGAG | -1.01 ± 0.07 | -0.654 ± 0.079
16 | AGCUAGCAAUAUUACGGCUA | -0.83 ± 0.14 | -0.754 ± 0.15
17 | UACUAGCAAUAUUACGCACA | -0.646 ± 0.079 | 0.021 ± 0.092
18 | UAGGAGCAAUAUUACGCUCG | -1.49 ± 0.21 | 0.196 ± 0.24
19 | CAUGAGCAAUAUUACGGUGG | -1.49 ± 0.078 | -0.665 ± 0.088
20 | GCCUAGCAAUAUUACGCAGU | -1.77 ± 0.13 | -0.206 ± 0.12
21 | CUGGAGCAAUAUUACGGGCC | – | -2.19 ± 0.31
22 | UCCAAGCAAUAUUACGCACC | -4.36 ± 0.32 | -1.94 ± 0.21
23 | ACUGAGCAAUAUUACGCCAG | -2.93 ± 0.49 | -2.78 ± 0.47
24 | AAGGAGCAAUAUUACGAUCC | – | 0.127 ± 0.31
25 | UACAAGCAAUAUUACGAACA | -1.14 ± 0.11 | -0.734 ± 0.097
26 | UCUCAGCAAUAUUACGGUUG | -3.46 ± 0.17 | -2.41 ± 0.21

Row | Sequence | self-splicing fitness (ln) (30 °C) | self-splicing fitness (ln) (37 °C)
27 | CCUCAGCAAUAUUACGGAGC | -4.55 ± 0.3 | -2.91 ± 0.19
28 | AACUAGCAAUAUUACGAGAG | -3.61 ± 0.12 | -1.84 ± 0.11
29 | GUCAAGCAAUAUUACGAUAU | -1.28 ± 0.07 | -0.525 ± 0.078
30 | AUAAAGCAAUAUUACGGAUU | -1.15 ± 0.077 | 0.0214 ± 0.091
31 | UACAAGCAAUAUUACGGUCU | -1.52 ± 0.052 | -0.534 ± 0.065
32 | CAUUAGCAAUAUUACGGUUG | -1.63 ± 0.09 | -0.664 ± 0.11
33 | GCACAGCAAUAUUACGGUUG | -2.18 ± 0.059 | -1.02 ± 0.072
34 | UACCAGCAAUAUUACGGUUU | -0.896 ± 0.056 | -0.463 ± 0.065
35 | UCAAAGCAAUAUUACGGAAU | -3.53 ± 0.17 | -2.94 ± 0.23
36 | UUAGAGCAAUAUUACGGAAG | -2.58 ± 0.33 | –
37 | AUUAAGCAAUAUUACGCGCG | -0.63 ± 0.13 | -0.752 ± 0.17
38 | AGCGAGCAAUAUUACGGCGA | -0.915 ± 0.22 | -0.377 ± 0.27
39 | GGUAAGCAAUAUUACGGUGA | -1.45 ± 0.12 | -0.756 ± 0.13
40 | GGAUAGCAAUAUUACGUGAA | -1.83 ± 0.07 | -1.13 ± 0.081
41 | UAAUAGCAAUAUUACGAGCU | -3.02 ± 0.29 | -1.79 ± 0.3
42 | UCCAAGCAAUAUUACGCUCU | -3.44 ± 0.28 | -1.75 ± 0.18
43 | CUGAAGCAAUAUUACGUACU | -3.61 ± 0.31 | -2.92 ± 0.34
44 | UGGUAGCAAUAUUACGUGGA | -2.71 ± 0.26 | -1.98 ± 0.16
45 | ACCCAGCAAUAUUACGCGAC | -2.48 ± 0.12 | -1.22 ± 0.13
46 | GCAAAGCAAUAUUACGCGUA | -0.985 ± 0.075 | -0.362 ± 0.071
47 | GUACAGCAAUAUUACGCAGC | -2.41 ± 0.17 | -2.33 ± 0.23
48 | UCUAAGCAAUAUUACGUCUU | -4.03 ± 0.27 | -4.18 ± 0.46
49 | GCCCAGCAAUAUUACGUCGC | -1.66 ± 0.095 | -0.355 ± 0.092
50 | GUUUAGCAAUAUUACGUCUG | -2.05 ± 0.18 | -1.84 ± 0.3
51 | CAACAGCAAUAUUACGUGGG | -3.25 ± 0.096 | -1.11 ± 0.075
52 | AGCUAGCAAUAUUACGCGAU | -3 ± 0.31 | -2.14 ± 0.22

Row | Sequence | self-splicing fitness (ln) (30 °C) | self-splicing fitness (ln) (37 °C)
53 | GACCAGCAAUAUUACGAUUC | -0.023 ± 0.075 | -0.543 ± 0.08
54 | AUGGAGCAAUAUUACGAACG | -2.21 ± 0.25 | -2.35 ± 0.5
55 | AAACAGCAAUAUUACGUUCC | -2.55 ± 0.16 | -1.13 ± 0.19
56 | AGAAAGCAAUAUUACGGCGG | -0.593 ± 0.1 | -0.586 ± 0.14
57 | GAAUAGCAAUAUUACGUUAG | -3.39 ± 0.2 | -1.94 ± 0.18
58 | UCGAAGCAAUAUUACGCCCU | -2.45 ± 0.2 | -1.7 ± 0.13
59 | GGCAAGCAAUAUUACGCGCG | -0.499 ± 0.065 | -0.495 ± 0.081
60 | ACCUAGCAAUAUUACGCCAG | -1.83 ± 0.22 | –
61 | AUACAGCAAUAUUACGCCGG | -2.34 ± 0.17 | -1.38 ± 0.21
62 | GUUAAGCAAUAUUACGGAUU | -2.21 ± 0.12 | -0.713 ± 0.14
63 | UAUGAGCAAUAUUACGACGG | -2.02 ± 0.13 | -1.83 ± 0.19
64 | CUGUAGCAAUAUUACGUACG | -1.43 ± 0.21 | -1.05 ± 0.19
65 | UUGAAGCAAUAUUACGGCAG | 0.393 ± 0.078 | -0.0313 ± 0.092
66 | AGAAAGCAAUAUUACGCGCU | -0.789 ± 0.15 | -1.26 ± 0.2
67 | UAUGAGCAAUAUUACGUCGU | -3.39 ± 0.3 | -2.93 ± 0.32
68 | GUUUAGCAAUAUUACGUGAU | -0.892 ± 0.17 | -0.419 ± 0.12
69 | GCAUAGCAAUAUUACGCCGC | – | -1.28 ± 0.27
70 | AAUCAGCAAUAUUACGCGUC | -1.14 ± 0.071 | 0.513 ± 0.088
71 | AGAUAGCAAUAUUACGCACU | -1.22 ± 0.1 | -0.664 ± 0.14
72 | GGCAAGCAAUAUUACGUCUC | -0.496 ± 0.087 | 0.539 ± 0.12
73 | CCUGAGCAAUAUUACGAGUU | -3.99 ± 0.39 | –
74 | CCCCAGCAAUAUUACGGCGC | -3.41 ± 0.17 | -2.98 ± 0.24
75 | UACAAGCAAUAUUACGGCUU | -3.99 ± 0.16 | -2.37 ± 0.15
76 | UGGUAGCAAUAUUACGUUUG | -1.26 ± 0.07 | -0.669 ± 0.098
77 | GCUUAGCAAUAUUACGUUGU | -1.5 ± 0.066 | -0.844 ± 0.093
78 | UGCGAGCAAUAUUACGCACG | -2.22 ± 0.28 | -1.98 ± 0.36
